Test results taken from article PMC10958042.

B1: ATGL (PNPLA2, patatin-like phospholipase domain-containing protein 2), human, full length / G0S2 (G0/G1 switch protein 2), human (parent)
chain 1: MFPREKTWNISFAGCGFLGVYYVGVASCLREHAPFLVANATHIYGASAGALTATALVTGVCLGEAGAKFIEVSKEARKRFLGPLHPSFNLVKIIRSFLLKVLPADSHEHASGRLGISLTRVSDGENVIISHFNSKDELIQANVCSGFIPVYCGLIPPSLQGVRYVDGGISDNLPLYELKNTITVSPFSGESDICPQDSSTNIHELRVTNTSIQFNLRNLYRLSKALFPPEPLVLREMCKQGYRDGLRFLQRNGLLNRPNPLLALPPARPHGPEDKDQAVESAQAEDYSQLPGEDHILEHLPARLNEALLEACVEPTDLLTTLSNMLPVRLATAMMVPYTLPLESALSFTIRLLEWLPDVPEDIRWMKEQTGSICQYLVMRAKRKLGRHLPSRLPEQVELRRVQSLPSVPLSCAAYREALPGWMRNNLSLGDALAKWEECQRQLLLGLFCTNVAFPPEALRMRAPADPAPAPADPASPQHQLAGPAPLLSTPAPEARPVIGALGL
chain 2: METVQELIPLAKEMMAQKRKGKMVKLYVLGSVLALFGVVLGLMETVCSPFTAARRLRDQEAAVAELQAALERQALQKQALQEKGKQQDTVLGGRALSNRQHAS
B2: ATGL (PNPLA2, patatin-like phospholipase domain-containing protein 2), human, full length / CGI-58 (ABHD5, 1-acylglycerol-3-phosphate O-acyltransferase ABHD5), human (parent)
chain 1: B1 chain 1
chain 2: MAAEEEEVDSADTGERSGWLTGWLPTWCPTSISHLKEAEEKMLKCVPCTYKKEPVRISNGNKIWTLKFSHNISNKTPLVLLHGFGGGLGLWALNFGDLCTNRPVYAFDLLGFGRSSRPRFDSDAEEVENQFVESIEEWRCALGLDKMILLGHNLGGFLAAAYSLKYPSRVNHLILVEPWGFPERPDLADQDRPIPVWIRALGAALTPFNPLAGLRIAGPFGLSLVQRLRPDFKRKYSSMFEDDTVTEYIYHCNVQTPSGETAFKNMTIPYGWAKRPMLQRIGKMHPDIPVSVIFGARSCIDGNSGTSIQSLRPHSYVKTIAILGAGHYVYADQPEEFNQKVKEICDTVD

Variants of: B1
Assay: LUMIER: Protein A-ATGL variant and firefly luciferase-partner co-expressed in HEK293T, lysates immunoprecipitated on IgG-coated plates, co-precipitated partner measured as luciferase luminescence
Conditions: with G0S2 (G0/G1 switch protein 2), transient co-transfection, IgG-coated LUMITRAC plates, 2 h at 4 °C, three PBS washes, Bright-Glo luciferase reagent, triplicates per assay, two …, parent: 0.26, not graded, scale: log2 fold change of co-immunoprecipitated luminescence relative to wild-type ATGL within each experiment

Row | screen value | Variant
1 | -1.31 | chain 1 G153A
2 | -0.308 | chain 1 E125L
3 | -0.115 | chain 1 F348E
4 | 0.00238 | chain 1 E314A
5 | 0.461 | chain 1 A434L
6 | -0.435 | chain 1 G16K

Same assay, conditions: with G0S2 (G0/G1 switch protein 2), transient co-transfection, IgG-coated LUMITRAC plates, 2 h at 4 °C, three PBS washes, Bright-Glo luciferase reagent, triplicates per assay, two …, parent: 0.56, not graded, scale: log2 fold change of co-immunoprecipitated luminescence relative to wild-type ATGL within each experiment

Row | screen value | Variant
7 | -1.25 | chain 1 G153A
8 | -0.181 | chain 1 E125L
9 | -0.287 | chain 1 F348E
10 | -0.218 | chain 1 E314A
11 | -0.0543 | chain 1 A434L
12 | -0.755 | chain 1 G16K

Variants of: B2
Assay: as above
Conditions: with CGI-58 (ABHD5, 1-acylglycerol-3-phosphate O-acyltransferase ABHD5), transient co-transfection, IgG-coated LUMITRAC plates, 2 h at 4 °C, three PBS washes, Bright-Glo luciferase reagent, triplicates per assay, two …, parent: 0.32, not graded, scale: log2 fold change of co-immunoprecipitated luminescence relative to wild-type ATGL within each experiment

Row | Variant | screen value
13 | chain 1 Y415A | 0.149
14 | chain 1 A434L | 0.0792
15 | chain 1 A104E | 0.291
16 | chain 1 S158A | 0.402
17 | chain 1 G59L | -0.404
18 | chain 1 P258L | -1.23
19 | chain 1 R329E | -0.412
20 | chain 1 E125L | -0.624
21 | chain 1 I70K | -0.355
22 | chain 1 N39E | -0.3
23 | chain 1 G153K | -0.536
24 | chain 1 L102K | -0.532
25 | chain 1 T41A | 0.269
26 | chain 1 R95L | -0.121
27 | chain 1 R95K | 0.177
28 | chain 1 S87A | -0.244
29 | chain 1 G66L | 0.0179
30 | chain 1 G66A | -0.000473
31 | chain 1 V328A | -0.513
32 | chain 1 E314A | -0.218
33 | chain 1 S106K | -0.182
34 | chain 1 L261E | -1.2
35 | chain 1 Q140K | -0.444
36 | chain 1 Q140A | 0.428
37 | chain 1 R113K | 0.189
38 | chain 1 L159A | -0.737
39 | chain 1 K275A | -0.731

The remaining lines, values ahead:

Row | screen value | Variant
40 | -0.67 | chain 1 K92L
41 | -0.139 | chain 1 G16K
42 | 0.381 | chain 1 A453E
43 | 0.0522 | chain 1 H109E
44 | -0.0835 | chain 1 S158E
45 | -0.614 | chain 1 L62K
46 | -0.556 | chain 1 L62A
47 | -0.83 | chain 1 F348E
48 | -0.794 | chain 1 P156K
49 | -0.502 | chain 1 Q396A
50 | -0.174 | chain 1 P86K
51 | -0.496 | chain 1 I70A
52 | -0.089 | chain 1 P103K
53 | -0.595 | chain 1 G153A
54 | -0.948 | chain 1 R351L
55 | -0.0512 | chain 1 F35A
56 | 0.146 | chain 1 F35E
57 | -0.0233 | chain 1 S87E
58 | -0.427 | chain 1 E368A
59 | 0.351 | chain 1 R163K
60 | -1.39 | chain 1 G189E
61 | -0.598 | chain 1 L178A
62 | -0.449 | chain 1 V127L
63 | -0.625 | chain 1 R113L

Same assay, conditions: with CGI-58 (ABHD5, 1-acylglycerol-3-phosphate O-acyltransferase ABHD5), transient co-transfection, IgG-coated LUMITRAC plates, 2 h at 4 °C, three PBS washes, Bright-Glo luciferase reagent, triplicates per assay, two …, parent: 0.45, not graded, scale: log2 fold change of co-immunoprecipitated luminescence relative to wild-type ATGL within each experiment

Row | Variant | screen value
64 | chain 1 Y415A | -0.124
65 | chain 1 A434L | 0.226
66 | chain 1 A104E | 0.0407
67 | chain 1 S158A | 0.00753
68 | chain 1 G59L | -0.665
69 | chain 1 P258L | -1.16
70 | chain 1 R329E | -0.601
71 | chain 1 E125L | -0.2
72 | chain 1 I70K | -0.676
73 | chain 1 N39E | -0.215
74 | chain 1 G153K | -0.602
75 | chain 1 L102K | -0.83
76 | chain 1 T41A | 0.283
77 | chain 1 R95L | -0.396
78 | chain 1 R95K | -0.0705
79 | chain 1 S87A | -0.0566
80 | chain 1 G66L | -0.54
81 | chain 1 G66A | 0.0899
82 | chain 1 V328A | -0.464
83 | chain 1 E314A | -0.112
84 | chain 1 S106K | -0.557
85 | chain 1 L261E | -0.989
86 | chain 1 Q140K | 0.322
87 | chain 1 Q140A | 0.0685
88 | chain 1 R113K | 0.534
89 | chain 1 L159A | -0.542
90 | chain 1 K275A | -0.473

Continued, values first:

Row | screen value | Variant
91 | -0.328 | chain 1 K92L
92 | 0.515 | chain 1 G16K
93 | 0.474 | chain 1 A453E
94 | -0.679 | chain 1 N180L
95 | -0.021 | chain 1 H109E
96 | -0.000176 | chain 1 S158E
97 | -0.447 | chain 1 L62K
98 | -0.528 | chain 1 L62A
99 | -1.02 | chain 1 F348E
100 | -0.596 | chain 1 P156K
101 | -0.818 | chain 1 Q396A
102 | -0.669 | chain 1 P86K
103 | -0.552 | chain 1 I70A
104 | 0.0251 | chain 1 P103K
105 | -0.455 | chain 1 G153A
106 | -1.04 | chain 1 R351L
107 | -0.207 | chain 1 F35A
108 | 0.336 | chain 1 F35E
109 | -0.304 | chain 1 S87E
110 | -0.714 | chain 1 E368A
111 | 0.226 | chain 1 R163K
112 | -1.13 | chain 1 G189E
113 | -0.392 | chain 1 L178A
114 | -0.203 | chain 1 V127L
115 | -0.259 | chain 1 R113L

Same assay, conditions: with CGI-58 (ABHD5, 1-acylglycerol-3-phosphate O-acyltransferase ABHD5), transient co-transfection, IgG-coated LUMITRAC plates, 2 h at 4 °C, three PBS washes, Bright-Glo luciferase reagent, triplicates per assay, two …, parent: 0.32, not graded, value at the no-binding floor (a bound), scale: log2 fold change of co-immunoprecipitated luminescence relative to wild-type ATGL within each experiment

Row | screen value | Variant
116 | -1.8 | chain 1 N180L
